{
  "source": "paper PMC7671560",
  "about": "“SAXS studies of X-ray induced disulfide bond damage: Engineering high-resolution insight from a low-resolution technique” (PLoS ONE, 2020)",
  "target": "the molecule itself",
  "assay": "SEC; Superdex 200 10/300 in 20 mM Tris-HCl pH 7.5, 50 mM NaCl, 5 mM EDTA; 100 uL at about 5 mg/ml injected; elution times compared to a standard curve; monomer to disulfide-linked dimer",
  "data": [
    {"protein": "endoHCYS (FRAGCYS-endoH-His6; Endoglycosidase-H with a 7 aa cysteine-containing fragment on its N-terminus) (enzyme, 7 aa fragment with a single free cysteine ('FRAGCYS') attached to the flexible N-terminus of endoH; Endoglycosidase-H (endoH), P04067, aa 47-313; has no native cysteines; The chain is written once as the protomer; two protomers join through an intermolecular disulfide between the cysteines of FRAGCYS (about 75% dimer, 25% monomer in the preparation); The structure's own numbering has Val-8 as the …) SLSTGCYVKQGPTSVAYVEVNNNSMLNVGKYTLADGGGNAFDVAVIFAANINYDTGTKTAYLHFNENVQRVLDNAVTQIRPLQQQGIKVLLSVLGNHQGAGFANFPSQQAASAFAKQLSDAVAKYGLDGVDFDDEYAEYGNNGTAQPNDSSFVHLVTALRANMPDKIISLYNIGPAASRLSYGGVDVSDKFDYAWNPYYGTWQVPGIALPKAQLSPAAVEIGRTSRSTVADLARRTVDEGYGVYLTYNLDGGDRTADVSAFTRELYGSEAVRTP", "values": [
      {"measurement": "stoichiometry N", "value": 2}
    ]}
  ]
}
